Results published in US20100260853A1 (published 2010).
Values joined by “and” are separate entries in the source; they are usually repeats but may differ in a detail not shown here. Equal values may be shown once.

Key:
GLP receptor = assay: cell-based or functional assay
cynomolgous IL-13 [1] = target: T1, cynomolgous IL-13 (cynomolgous, UniProt Q0PW92 19-132, Presumably biotinylated for capture on the streptavidin (SA) chip; biotinylation sites not stated.); assay: Biacore, about 100 RU cynomolgous IL-13 on SA chip, dAb in flow
T1 construct: also called cyno IL-13; cIL-13

human IL-13 [2] = target: T2, human IL-13 (human, UniProt P35225 35-146, limits assumed, biotinylated in the binding ELISA and on the Biacore chip); assay: 'Binding Assay' on hIL-13 as headed in Table 12; 20 mg/ml in PBS, before nebulisation
T2 construct: also called hIL-13; Hu IL-13

human IL-13 [3] = target: T2, human IL-13; assay: Biacore, about 100 RU biotinylated human IL-13 on SA chip, dAb in flow
human IL-13 [4] = target: T2, human IL-13; assay: sandwich ELISA: dAb mixed with hIL-13, capture and detection by mouse anti-human IL-13 antibodies, OD450
human IL-13 [5] = target: T2, human IL-13; assay: 'Binding Assay' on hIL-13 as headed in Table 12; PARI LC*, aerosol sample at 29 mins
human IL-13 [6] = target: T2, human IL-13; assay: 'Binding Assay' on hIL-13 as headed in Table 12; PARI LC*, reservoir sample at 29 mins
human IL-13 [7] = target: T2, human IL-13; assay: 'Binding Assay' on hIL-13 as headed in Table 12; PARI LC*, aerosol sample at 3 mins
human IL-13 [8] = target: T2, human IL-13; assay: binding ELISA: biotinylated human IL-13 on NeutrAvidin plate, bound dAb detected with anti-human Ig (VH specific)
human IL-13 [9] = target: T2, human IL-13; assay: 'Binding Assay' on hIL-13 as headed in Table 12; PARI LC*, reservoir sample at 3 mins
human IL-13 [10] = target: T2, human IL-13; assay: 'Binding Assay' on hIL-13 as headed in Table 12; PARI LC*, reservoir sample at 15 mins
human IL-13 [11] = target: T2, human IL-13; assay: 'Binding Assay' on hIL-13 as headed in Table 12; PARI LC*, aerosol sample at 15 mins
cynomolgous IL-13 [12] = target: T1, cynomolgous IL-13; assay: cell-based or functional assay
human IL-13 [13] = target: T2, human IL-13; assay: cell-based or functional assay
cynomolgous IL-13 [14] = target: T1, cynomolgous IL-13; assay: cell-based or functional assay; remark: listed apart in the source
human IL-13 [15] = target: T2, human IL-13; assay: cell-based or functional assay; remark: listed apart in the source
human IL-13 [16] = target: T2, human IL-13; assay: sandwich ELISA on hIL-13; 2.6 mg/mL in PBS, LC+, material remaining in cup
human IL-13 [17] = target: T2, human IL-13; assay: sandwich ELISA on hIL-13; 2.3 mg/mL in phosphate/PEG1000/sucrose, LC+, material remaining in cup
human IL-13 [18] = target: T2, human IL-13; assay: sandwich ELISA on hIL-13; 4.7 mg/mL in phosphate/PEG1000/sucrose, LC+, aerosolized material
human IL-13 [19] = target: T2, human IL-13; assay: sandwich ELISA on hIL-13; 2.6 mg/mL in PBS, LC+, aerosolized material
human IL-13 [20] = target: T2, human IL-13; assay: sandwich ELISA on hIL-13; 4.7 mg/mL in phosphate/PEG1000/sucrose, LC+, material remaining in cup
human IL-13 [21] = target: T2, human IL-13; assay: sandwich ELISA on hIL-13; 2.3 mg/mL in phosphate/PEG1000/sucrose, E-flow, aerosolized material
human IL-13 [22] = target: T2, human IL-13; assay: sandwich ELISA on hIL-13; 2.6 mg/mL in PBS, E-flow, material remaining in cup
human IL-13 [23] = target: T2, human IL-13; assay: sandwich ELISA on hIL-13; 4.7 mg/mL in phosphate/PEG1000/sucrose, E-flow, material remaining in cup
human IL-13 [24] = target: T2, human IL-13; assay: sandwich ELISA on hIL-13; 2.6 mg/mL in PBS, E-flow, aerosolized material
human IL-13 [25] = target: T2, human IL-13; assay: sandwich ELISA on hIL-13; 4.7 mg/mL in phosphate/PEG1000/sucrose, E-flow, aerosolized material
human IL-13 [26] = target: T2, human IL-13; assay: sandwich ELISA on hIL-13; 2.3 mg/mL in phosphate/PEG1000/sucrose, LC+, aerosolized material
human IL-13 [27] = target: T2, human IL-13; assay: sandwich ELISA on hIL-13; material in 1xPBS, not nebulised

T1 sequence (Q0PW92 entry or part of it limits assumed, form in doubt): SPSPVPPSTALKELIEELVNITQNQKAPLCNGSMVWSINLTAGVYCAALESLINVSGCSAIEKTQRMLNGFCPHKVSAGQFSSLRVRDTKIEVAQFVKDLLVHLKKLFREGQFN

Molecule: Exendin 4 (G4S)3 DOM7h-14 fusion (DAT0115) (from UniProt P26349)
- DAT01 cell assay EC50, CHO 6CRE/luciferase reporter (sample: DAT0115 LC+ aerosol 3 mins) (GLP receptor): 0.296 nM
- DAT01 cell assay EC50, CHO 6CRE/luciferase reporter (sample: DAT0115 LC+ aerosol 15 mins) (GLP receptor): 0.316 nM
- DAT01 cell assay EC50, CHO 6CRE/luciferase reporter (sample: DAT0115 LC+ aerosol 29 mins) (GLP receptor): 0.142 nM
- DAT01 cell assay EC50, CHO 6CRE/luciferase reporter (sample: DAT0115 LC+ cup 3 mins) (GLP receptor): 0.725 nM
- DAT01 cell assay EC50, CHO 6CRE/luciferase reporter (sample: DAT0115 LC+ cup 15 mins) (GLP receptor): 0.453 nM
- DAT01 cell assay EC50, CHO 6CRE/luciferase reporter (sample: DAT0115 LC+ cup 29 mins) (GLP receptor): 0.445 nM
- DAT01 cell assay EC50, CHO 6CRE/luciferase reporter (sample: DAT0115 T0) (GLP receptor): 0.178 nM
- DAT01 cell assay EC50, CHO 6CRE/luciferase reporter (sample: DAT0115 e-Flow aerosol 3 mins) (GLP receptor): 0.798 nM
- DAT01 cell assay EC50, CHO 6CRE/luciferase reporter (sample: DAT0115 e-Flow cup 3 mins) (GLP receptor): 0.535 nM

B1: DOM10-275-78 (other)
chain: EVQLLESGGGLVQPGGSLRLSCVASGFTFDVAEMDWVRQAPGKGLEWVSTISPSRRGTYYADSVKGRFTISRDNSKNTLYLQMNSLRAEDTAVYYCAKAYTGRSLWGPGTLVTVSS
- Kd (cynomolgous IL-13 [1]): 0.32 to 0.75 nM
- IC50 (human IL-13 [2]): 1.2 nM
- Kd (human IL-13 [3]): 0.072 to 0.1 nM
- EC50 (human IL-13 [4]): 3.33 nM
- IC50 (human IL-13 [5]): 1.1 nM
- IC50 (human IL-13 [6]): 1.1 nM
- IC50 (human IL-13 [7]): 1.1 nM
- EC50 (human IL-13 [8]): 1.3 nM
- IC50 (human IL-13 [9]): 1.1 nM
- IC50 (human IL-13 [10]): 1.2 nM
- IC50 (human IL-13 [11]): 1 nM
- HEK cell assay EC50, Cyno IL-13 (sample: DOM10-275-78 aerosol 3 mins) (cynomolgous IL-13 [12]): 0.99 nM
- HEK cell assay EC50, Cyno IL-13 (sample: DOM10-275-78 aerosol 15 mins) (cynomolgous IL-13 [12]): 0.95 nM
- HEK cell assay EC50, Cyno IL-13 (sample: DOM10-275-78 aerosol 29 mins) (cynomolgous IL-13 [12]): 0.74 nM
- HEK cell assay EC50, Cyno IL-13 (sample: DOM10-275-78 cup 3 mins) (cynomolgous IL-13 [12]): 1.77 nM
- HEK cell assay EC50, Cyno IL-13 (sample: DOM10-275-78 cup 15 mins) (cynomolgous IL-13 [12]): 1.52 nM
- HEK cell assay EC50, Cyno IL-13 (sample: DOM10-275-78 cup 29 mins) (cynomolgous IL-13 [12]): 0.74 nM
- HEK cell assay EC50, Cyno IL-13 (sample: DOM10-275-78 start) (cynomolgous IL-13 [12]): 0.93 nM
- HEK cell assay EC50, Hu IL-13 (sample: DOM10-275-78 aerosol 3 mins) (human IL-13 [13]): 1.8 nM
- HEK cell assay EC50, Hu IL-13 (sample: DOM10-275-78 aerosol 15 mins) (human IL-13 [13]): 1.01 nM
- HEK cell assay EC50, Hu IL-13 (sample: DOM10-275-78 aerosol 29 mins) (human IL-13 [13]): 0.62 nM
- HEK cell assay EC50, Hu IL-13 (sample: DOM10-275-78 cup 3 mins) (human IL-13 [13]): 1.45 nM
- HEK cell assay EC50, Hu IL-13 (sample: DOM10-275-78 cup 15 mins) (human IL-13 [13]): 2.18 nM
- HEK cell assay EC50, Hu IL-13 (sample: DOM10-275-78 cup 29 mins) (human IL-13 [13]): 0.48 nM
- HEK cell assay EC50, Hu IL-13 (sample: DOM10-275-78 start) (human IL-13 [13]): 0.58 nM
- HEK assay cIL-13 EC50 (HEK293 STAT6 SEAP reporter) (cynomolgous IL-13 [14]): 1.4 nM
- HEK assay hIL-13 EC50 (HEK293 STAT6 SEAP reporter, 6 ng/ml IL-13) (human IL-13 [15]): 2.5 nM

B2: DOM10-53-474 (other)
chain: GVQLLESGGGLVQPGGSLRLSCAASGFTFAWYDMGWVRQAPGKGLEWVSSIDWHGEVTYYADSVKGRFTISRDNSKNTLYLQMNSLRAEDTAVYYCATAEDEPGYDYWGQGTLVTVSS
- IC50 (human IL-13 [16]): 0.0339 nM
- Kd (cynomolgous IL-13 [1]): 2 nM
- IC50 (human IL-13 [17]): 0.0317 nM
- Kd (human IL-13 [3]): 0.028 nM
- EC50 (human IL-13 [4]): 0.057 nM
- IC50 (human IL-13 [18]): 0.0149 nM
- IC50 (human IL-13 [19]): 0.023 nM
- EC50 (human IL-13 [8]): 1.08 nM
- IC50 (human IL-13 [20]): 0.0129 nM
- IC50 (human IL-13 [21]): 0.0322 nM
- IC50 (human IL-13 [22]): 0.0224 nM
- IC50 (human IL-13 [23]): 0.0214 nM
- IC50 (human IL-13 [24]): 0.0351 nM
- IC50 (human IL-13 [25]): 0.0185 nM
- IC50 (human IL-13 [26]): 0.0348 nM
- IC50 (human IL-13 [27]): 0.0458 nM and 0.0356 nM and 0.0289 nM and 0.0269 nM
- HEK cell assay EC50, Cyno IL-13 (sample: DOM10-53-474 standard) (cynomolgous IL-13 [12]): 15.2 nM
- HEK cell assay EC50, Hu IL-13 (sample: DOM10-53-474 standard) (human IL-13 [13]): 0.62 nM
- HEK assay cIL-13 EC50 (HEK293 STAT6 SEAP reporter) (cynomolgous IL-13 [14]): 11.1 nM
- HEK assay hIL-13 EC50 (HEK293 STAT6 SEAP reporter, 6 ng/ml IL-13) (human IL-13 [15]): 0.63 nM
